Publication PMC2978023 (Journal of immunology (Baltimore, Md. : 1950), 2008)

Experiments:
[1] = system: PMN; conditions: cited from earlier work
[2] = system: monocytes; conditions: PAR-1-dependent; ref [29]; cited from earlier work
[3] = system: human PMNs; conditions: PMN; data not shown

Molecule | effect on PMN death [1] | effect on TNF-α-induced apoptosis in monocytes [2] | prosurvival/cytoprotective effect on PMN (in words) [3]
Fas ligand: promotes PMN death via interaction with its receptor on the cell surface (protein, UniProt P48023 130-281, looked up) Tumor necrosis factor ligand …: QIGHPSPPPEKKELRKVAHLTGKSNSRSMPLEWEDTYGIVLLSGVKYKKGGLVINETGLYFVYSKVYFRGQSCNNLPLSHKVYMRNSKYPQDLVMMEGKMMSYCTTGQMWARSSYLGAVFNLTSADHLYVNVSELSLVNFEESQTFFGLYKL | promote PMN death |  | 
plasmin (protein, UniProt P00747 20-580; P00747 581-810, looked up, Plasmin) Plasmin heavy chain A: EPLDDYVNTQGASLFSVTKKQLGAGSIEECAAKCEEDEEFTCRAFQYHSKEQQCVIMAENRKSSIIIRMRDVVLFEKKVYLSECKTGNGKNYRGTMSKTKNGITCQKWSSTSPHRPRFSPATHPSEGLEENYCRNPDNDPQGPWCYTTDPEKRYDYCDILECEEECMHCSGENYDGKISKTMSGLECQAWDSQSPHAHGYIPSKFPNKNLKKNYCRNPDRELRPWCFTTDPNKRWELCDIPRCTTPPPSSGPTYQCLKGTGENYRGNVAVTVSGHTCQHWSAQTPHTHNRTPENFPCKNLDENYCRNPDGKRAPWCHTTNSQVRWEYCKIPSCDSSPVSTEQLAPTAPPELTPVVQDCYHGDGQSYRGTSSTTTTGKKCQSWSSMTPHRHQKTPENYPNAGLTMNYCRNPDADKGPWCFTTDPSVRWEYCNLKKCSGTEASVVAPPPVVLLPDVETPSEEDCMFGNGKGYRGKRATTVTGTPCQDWAAQEPHRHSIFTPETNPRAGLEKNYCRNPDGDVGGPWCYTTNPRKLYDYCDVPQCAAPSFDCGKPQVEPKKCPGR Plasmin light chain B: VVGGCVAHPHSWPWQVSLRTRFGMHFCGGTLISPEWVLTAAHCLEKSPRPSSYKVILGAHQEVNLEPHVQEIEVSRLFLEPTRKDIALLKLSSPAVITDKVIPACLPSPNYVVADRTECFITGWGETQGTFGAGLLKEAQLPVIENKVCNRYEFLNGRVQSTELCAGHLAGGTDSCQGDSGGPLVCFEKDKYILQGVTSWGLGCARPNKPGVYVRVSRFVTWIEGVMRNN |  | inhibits TNF-α-induced apoptosis in monocytes | did not exert a cytoprotective function
